Publication PMC11233918
Where two headings read alike, the source gives them in different places.

How the values were obtained:
Experiment in all cases: EMSA
SUMO-TDP-43 RRM1,2 [1] = target: T1, SUMO-TDP-43 RRM1,2 (human, UniProt Q13148 102-269)
SUMO-TDP-43 RRM1,2 [2] = target: T1, SUMO-TDP-43 RRM1,2; remark: listed apart in the source
SUMO-TDP-43 RRM1,2 [3] = target: T1, SUMO-TDP-43 RRM1,2; remark: listed apart in the source
SUMO-TDP-43 RRM1,2 [4] = target: T1, SUMO-TDP-43 RRM1,2; remark: listed apart in the source

T1 sequence (Q13148 102-269): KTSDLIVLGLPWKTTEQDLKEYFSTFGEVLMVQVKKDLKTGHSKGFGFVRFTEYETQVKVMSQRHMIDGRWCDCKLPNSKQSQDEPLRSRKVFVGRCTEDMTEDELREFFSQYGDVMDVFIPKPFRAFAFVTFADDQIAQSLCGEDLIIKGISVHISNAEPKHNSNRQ

B1: (GU)16 (ssRNA)
RNA: GUGUGUGUGUGUGUGUGUGUGUGUGUGUGUGU
modifications: 2'-O-methyl and phosphorothioate; positions in Table S1 (not in material)
binding result (SUMO-TDP-43 RRM1,2 [1]): binds

B2: ('AUG12')2 (ssRNA)
RNA: GUGUGAAUGAAUGUGUGAAUGAAU
modifications: 2'-O-methyl and phosphorothioate; positions in Table S1 (not in material)
binding result (SUMO-TDP-43 RRM1,2 [2]): binds

B3: (GU)6 (ssRNA)
RNA: GUGUGUGUGUGU
modifications: see Table S1 (not in material)
binding result (SUMO-TDP-43 RRM1,2 [3]): binds

B4: A32 (ssRNA)
RNA: AAAAAAAAAAAAAAAAAAAAAAAAAAAAAAAA
modifications: see Table S1 (not in material)
binding result (SUMO-TDP-43 RRM1,2 [4]): no binding

B5: (CA)16 (ssRNA)
RNA: CACACACACACACACACACACACACACACACA
modifications: see Table S1 (not in material)
binding result (SUMO-TDP-43 RRM1,2 [4]): no binding
